Measurements reported in PMC6417941.

Target: Thermococcus kodakarensis RNA polymerase (Thermococcus kodakarensis)

B1: Spt4-Spt5 complex (complex)
chain 1: MAKERACRHCHYITTEDRCPVCGSRDLSDDWFDLVIVLDVESRIAKKLRESIPEAAKVPGKYAIRVR
chain 2: MAEGKIFTVSVTVGQETTTANLIYSKAKTYNLPLYAILSPSKVKGYIFIEAPNKSAVEEAIRGIRHAKRVLPGEIPFSEIEHFLEEKPAVSGFEPGDIVELIAGPFKGEKAKVVRVDESKDEIVVELVSSVVPIPVTVRGEYVRLISKRQKE
**Q.** Which elongation rate on histone-bound (HTkB) templates, against no factor does the source give for B1 here?
**A.** 1.5 fold
